For one assay, the target named is T1, SARS S1 protein, His Tag (SARS-CoV-1, UniProt P59594 14-667).
T1 construct: domain: S1; also called recombinant severe acute respiratory syndrome coronavirus 1 (SARS-CoV-1) spike protein
Briefly: ELISA, coated antigen, mAb 3 µg/mL. (In general: In an ELISA, binding on a coated surface is turned into a signal by an enzyme label.)

Assay [1] deals with T2, Influenza A H1N1 (A/Puerto Rico/8/1934) Hemagglutinin/HA Protein (ECD, His Tag) (Influenza A H1N1 (A/Puerto Rico/8/1934), UniProt P03452 18-528).
T2 construct: extracellular domain; Bought; also called influenza A/PR8 (H1N1) hemagglutinin (HA); H1N1 HA
Briefly: ELISA, coated antigen.

T2 sequence (P03452 18-528): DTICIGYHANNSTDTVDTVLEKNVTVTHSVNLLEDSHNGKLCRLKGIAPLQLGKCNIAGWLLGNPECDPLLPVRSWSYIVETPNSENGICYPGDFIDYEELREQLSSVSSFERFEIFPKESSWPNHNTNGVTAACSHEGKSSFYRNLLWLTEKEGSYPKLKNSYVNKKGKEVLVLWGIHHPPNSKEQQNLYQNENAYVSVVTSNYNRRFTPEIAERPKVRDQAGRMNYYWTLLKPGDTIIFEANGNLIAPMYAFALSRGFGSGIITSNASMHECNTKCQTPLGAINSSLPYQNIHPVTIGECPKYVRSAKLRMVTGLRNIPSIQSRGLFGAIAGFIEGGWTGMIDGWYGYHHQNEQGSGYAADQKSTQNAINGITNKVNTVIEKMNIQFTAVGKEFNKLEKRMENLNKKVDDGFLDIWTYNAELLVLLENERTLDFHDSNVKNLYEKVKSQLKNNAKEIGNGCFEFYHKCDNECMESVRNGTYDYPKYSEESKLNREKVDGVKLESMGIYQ

B1: IGHV6-3 monoclonal antibody (mouse IgG2c, Ig kappa) (antibody, V domains shown)
VH: EVKLEESGGGLVQPGGSMKLSCVASGFTFSNYWMNWVRQSPEKGLEWVAQIRLKSDNYATHYAESVKGRFTISRDDSKSSVYLQMNNLRAEDTGIYYCTDITGPIDYWGQGTTLTVSS
VL: DIKMTQSPSSMYASLGERVTITCKASQDINSYLSWFQQKPGKSPKTLIYRANRLVDGVPSRFSGSGSGQDYSLTISSLEYEDMGIYYCLQYDEFPYTFGGGTKLEIK
notes: also called IGHV6-3 mAb; Mouse IGHV6-3 mAb, g2c
As for B1, the binding result with SARS S1 protein, His Tag is given as “binds”; in assay [1], “binds”.

The record behind these values is US20250051425A1 (YALE UNIVERSITY, published 2025).
